These results are taken from article PMC11497264 (2024).

In experiment [1] the target is T1, human glucose-regulated protein GRP78 (human, UniProt P11021 19-654). Description: SPR.
The target of experiment [2] is T1, human glucose-regulated protein GRP78. The experiment is described as follows: SPR. This is another data set of the same source. (In general: SPR reads the build-up and loss of mass on a sensor chip optically.)
Experiment [3] has the same target. The experiment is described as follows: SPR; two-state model, kd1.
For experiment [4] the target is unchanged. Description: SPR; two-state reaction model.

Bridge positions count the residues as written; N and C are the ends.

T1 sequence (P11021 19-654): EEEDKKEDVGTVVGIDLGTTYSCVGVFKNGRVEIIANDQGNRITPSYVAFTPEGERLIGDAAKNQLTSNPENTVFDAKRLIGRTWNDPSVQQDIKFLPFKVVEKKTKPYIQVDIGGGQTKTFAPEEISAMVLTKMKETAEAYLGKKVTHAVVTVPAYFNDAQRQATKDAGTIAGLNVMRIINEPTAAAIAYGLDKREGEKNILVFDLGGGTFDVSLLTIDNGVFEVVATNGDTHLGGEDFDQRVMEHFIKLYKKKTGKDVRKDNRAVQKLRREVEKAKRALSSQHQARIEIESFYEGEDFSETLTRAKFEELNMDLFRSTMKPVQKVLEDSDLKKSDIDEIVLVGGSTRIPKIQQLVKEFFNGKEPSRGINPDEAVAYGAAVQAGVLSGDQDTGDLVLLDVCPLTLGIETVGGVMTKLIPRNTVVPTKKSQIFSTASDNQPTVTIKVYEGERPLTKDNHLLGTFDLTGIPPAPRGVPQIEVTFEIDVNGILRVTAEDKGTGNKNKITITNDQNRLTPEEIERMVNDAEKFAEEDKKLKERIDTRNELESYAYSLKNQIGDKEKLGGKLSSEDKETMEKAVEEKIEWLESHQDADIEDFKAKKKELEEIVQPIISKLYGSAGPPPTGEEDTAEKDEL

B1: LCP W, loop-derived cyclic peptide based on spike residues 480-488 of the Wuhan strain (peptide)
peptide: H-CNGVEGFNC-NH2
modifications: disulfide 1-9
SMILES: CC(C)[C@@H]1NC(=O)CNC(=O)[C@H](CC(N)=O)NC(=O)[C@@H](N)CSSC[C@@H](C(N)=O)NC(=O)[C@H](CC(N)=O)NC(=O)[C@H](Cc2ccccc2)NC(=O)CNC(=O)[C@H](CCC(=O)O)NC1=O
Usually koff stands for the rate constant with which the complex falls apart. A high value points to a short-lived complex. The term Kd denotes the constant that tells how readily two partners part at equilibrium. A low value points to a tighter complex. Regarding B1, the koff in experiment [1] turned out to be 0.43 s⁻¹. The molecule further came in with a Kd in experiment [2] of 259 µM.

B2: Pep42, 13-mer cyclopeptide (peptide)
peptide: H-CTVALPGGYVRVC-NH2
modifications: disulfide 1-13
SMILES: CC(C)C[C@@H]1NC(=O)[C@H](C)NC(=O)[C@H](C(C)C)NC(=O)[C@H]([C@@H](C)O)NC(=O)[C@@H](N)CSSC[C@@H](C(N)=O)NC(=O)[C@H](C(C)C)NC(=O)[C@H](CCCNC(=N)N)NC(=O)[C@H](C(C)C)NC(=O)[C@H](Cc2ccc(O)cc2)NC(=O)CNC(=O)CNC(=O)[C@@H]2CCCN2C1=O
B2: the koff in experiment [3] is 0.678 s⁻¹. The molecule further gave a Kd in experiment [4] of 3430 µM.
